Test system: Lenti-X 293T cells
Test: YFP fluorescence quenching anion reporter plate reader assay of engineered receptors stimulated with acetylcholine or a non-native ligand
Assay type: cell-based
Settings: for percent quench of YFP fluorescence, 30 nM TC-6683: TC-6683 30 nM; for percent quench of YFP fluorescence, 300 nM TC-6683: TC-6683 300 nM; for percent quench of YFP fluorescence, 3 uM TC-6683: TC-6683 3 uM; for percent quench of YFP fluorescence, 30 uM TC-6683: TC-6683 30 uM; for percent quench of YFP fluorescence, 100 uM TC-6683: TC-6683 100 uM; for percent quench of YFP fluorescence, 10 uM ach: acetylcholine 10 uM; for percent quench of YFP fluorescence, 100 uM ach: acetylcholine 100 uM; for percent quench of YFP fluorescence, 1 mM ach: acetylcholine 1 mM; for percent quench of YFP fluorescence, 3 mM ach: acetylcholine 3 mM
Procedure, shortened: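 Lenti-X 293T cells carrying a YFP anion reporter were transiently transfected with channel DNA and assayed the next day in HEPES-buffered ECS at pH 7.2. Ligand (acetylcholine or non-native ligand) was added in NaI-substituted ECS. Percent quench was the mean of the last 10 s relative to the 15 s pre-addition baseline.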

B1: CODA335: engineered chimeric LGIC receptor, L131T in SEQ ID NO: 33 (protein)
chain: MRCSPGGVWLALAASLLHVSLQGEFQRKLYKELVKNYNPLERPVANDSQPLTVYFSLSLLQIMDVDEKNQVLTTNIWLQMSWTDHYLQWNVSEYPGVKTVRFPDGQIWKPDILLYNSADERFDATFHTNVTVNSSGHCQYLPPGIFKSSCPMDLKNFPMDVQTCKLKFGSWSYGGWSLDLQMQEADISGYIPNGEWDLVGIPGKRSERFYECCKEPYPDVTFTVTMRRRMGYYLIQMYIPSLLIVILSWISFWINMDAAPARVGLGITTVLTMTTQSSGSRASLPKVSYVKAIDIWMAVCLLFVFSALLEYAAVNFVSRQHKELLRFRRKRRHHKSPMLNLFQEDEAGEGRFNFSAYGMGPACLQAKDGISVKGANNSNTTNPPPAPSKSPEEMRKLFIQRAKKIDKISRIGFPMAFLIFNMFYWIIYKIVRREDVHNQ
modifications: synthetic sequence of chimeric LGIC
1 nM CNL001, first column
  YFP fluorescence quenching using CNL001: −9.942%
1 nM CNL001, second column
  YFP fluorescence quenching using CNL001: −0.475%
1 nM brd
  YFP fluorescence quenching using TC-5619/Bradanicline: −2.39%
3 nM brd
  YFP fluorescence quenching using TC-5619/Bradanicline: −4.08%
3 nM var, first column
  YFP fluorescence quenching using Varenicline: 0.398
3 nM var, second column
  YFP fluorescence quenching using Varenicline: 3.947
10 nM CNL001, first column
  YFP fluorescence quenching using CNL001: 17.889%
10 nM CNL001, second column
  YFP fluorescence quenching using CNL001: 38.46%
10 nM brd
  YFP fluorescence quenching using TC-5619/Bradanicline: −3.3%
30 nM brd
  YFP fluorescence quenching using TC-5619/Bradanicline: −9.69%
30 nM fac
  YFP fluorescence quenching using Facinicline: 1.24
30 nM var, first column
  YFP fluorescence quenching using Varenicline: 5.31
30 nM var, second column
  YFP fluorescence quenching using Varenicline: 7.666
50 nM CNL001, first column
  YFP fluorescence quenching using CNL001: 61.741%
50 nM CNL001, second column
  YFP fluorescence quenching using CNL001: 69.159%
50 nM abt
  YFP fluorescence quenching using ABT-126: −18%
100 nM CNL001, first column
  YFP fluorescence quenching using CNL001: 73.635%
100 nM CNL001, second column
  YFP fluorescence quenching using CNL001: 76.092%
100 nM CNL002
  YFP fluorescence quenching using CNL002: −14.53%
100 nM abt
  YFP fluorescence quenching using ABT-126: −16.39%
100 nM azd0328
  YFP fluorescence quenching using AZD-0328: 11.33%
100 nM brd
  YFP fluorescence quenching using TC-5619/Bradanicline: −1.05%
300 nM abt
  YFP fluorescence quenching using ABT-126: −15.05%
300 nM azd0328
  YFP fluorescence quenching using AZD-0328: 44.15%
300 nM brd
  YFP fluorescence quenching using TC-5619/Bradanicline: 10.53%
300 nM fac
  YFP fluorescence quenching using Facinicline: 46.92
300 nM var, first column
  YFP fluorescence quenching using Varenicline: 4.327
300 nM var, second column
  YFP fluorescence quenching using Varenicline: 3.275
500 nM var, first column
  YFP fluorescence quenching using Varenicline: 1.835
500 nM var, second column
  YFP fluorescence quenching using Varenicline: 4.863
1 uM CNL001, first column
  YFP fluorescence quenching using CNL001: 80.633%
1 uM CNL001, second column
  YFP fluorescence quenching using CNL001: 79.637%
1 uM CNL002
  YFP fluorescence quenching using CNL002: 6.45%
1 uM abt
  YFP fluorescence quenching using ABT-126: −5.56%
1 uM brd
  YFP fluorescence quenching using TC-5619/Bradanicline: 34.72%
1 uM tc6987
  YFP fluorescence quenching using TC-6987: −0.14
1 uM var, first column
  YFP fluorescence quenching using Varenicline: 9.471
1 uM var, second column
  YFP fluorescence quenching using Varenicline: 7.505
3 uM tc6987
  YFP fluorescence quenching using TC-6987: −8.32
5 uM tc6987
  YFP fluorescence quenching using TC-6987: −2.13
10 uM fac
  YFP fluorescence quenching using Facinicline: 79.06
10 uM tc6987
  YFP fluorescence quenching using TC-6987: 0.13
30 uM CNL002
  YFP fluorescence quenching using CNL002: 57.43%
30 uM azd0328
  YFP fluorescence quenching using AZD-0328: 80.96%
30 uM fac
  YFP fluorescence quenching using Facinicline: 81.06
30 uM tc6987
  YFP fluorescence quenching using TC-6987: −6.86
50 uM tc6987
  YFP fluorescence quenching using TC-6987: −9.5
100 uM tc6987
  YFP fluorescence quenching using TC-6987: −10.98
300 uM tc6987
  YFP fluorescence quenching using TC-6987: −12.16
500 uM tc6987
  YFP fluorescence quenching using TC-6987: −2.41
  percent quench of YFP fluorescence, 30 nM TC-6683: −13.84%
  percent quench of YFP fluorescence, 300 nM TC-6683: −20.66%
  percent quench of YFP fluorescence, 3 uM TC-6683: −17.86%
  percent quench of YFP fluorescence, 30 uM TC-6683: −18.91%
  percent quench of YFP fluorescence, 100 uM TC-6683: −16.88%
  percent quench of YFP fluorescence, 10 uM ach: −9.13%
  percent quench of YFP fluorescence, 100 uM ach: −9.29%
  percent quench of YFP fluorescence, 1 mM ach: 0.57%
  percent quench of YFP fluorescence, 3 mM ach: 35.37%

B2: CODA339: engineered chimeric LGIC receptor, L131D in SEQ ID NO: 33 (protein)
chain: MRCSPGGVWLALAASLLHVSLQGEFQRKLYKELVKNYNPLERPVANDSQPLTVYFSLSLLQIMDVDEKNQVLTTNIWLQMSWTDHYLQWNVSEYPGVKTVRFPDGQIWKPDILLYNSADERFDATFHTNVDVNSSGHCQYLPPGIFKSSCPMDLKNFPMDVQTCKLKFGSWSYGGWSLDLQMQEADISGYIPNGEWDLVGIPGKRSERFYECCKEPYPDVTFTVTMRRRMGYYLIQMYIPSLLIVILSWISFWINMDAAPARVGLGITTVLTMTTQSSGSRASLPKVSYVKAIDIWMAVCLLFVFSALLEYAAVNFVSRQHKELLRFRRKRRHHKSPMLNLFQEDEAGEGRFNFSAYGMGPACLQAKDGISVKGANNSNTTNPPPAPSKSPEEMRKLFIQRAKKIDKISRIGFPMAFLIFNMFYWIIYKIVRREDVHNQ
modifications: synthetic sequence of chimeric LGIC
1 nM CNL001, first column
  YFP fluorescence quenching using CNL001: 73.711%
1 nM CNL001, second column
  YFP fluorescence quenching using CNL001: 76.44%
1 nM brd
  YFP fluorescence quenching using TC-5619/Bradanicline: 4.12%
3 nM brd
  YFP fluorescence quenching using TC-5619/Bradanicline: 19.15%
3 nM var, first column
  YFP fluorescence quenching using Varenicline: −0.902
3 nM var, second column
  YFP fluorescence quenching using Varenicline: −7.62
10 nM CNL001, first column
  YFP fluorescence quenching using CNL001: 77.049%
10 nM CNL001, second column
  YFP fluorescence quenching using CNL001: 77.76%
10 nM brd
  YFP fluorescence quenching using TC-5619/Bradanicline: 68.98%
30 nM brd
  YFP fluorescence quenching using TC-5619/Bradanicline: 77.29%
30 nM fac
  YFP fluorescence quenching using Facinicline: 12.67
30 nM var, first column
  YFP fluorescence quenching using Varenicline: −6.009
30 nM var, second column
  YFP fluorescence quenching using Varenicline: −3.447
50 nM CNL001, first column
  YFP fluorescence quenching using CNL001: 77.882%
50 nM CNL001, second column
  YFP fluorescence quenching using CNL001: 78.708%
50 nM abt
  YFP fluorescence quenching using ABT-126: −16.65%
100 nM CNL001, first column
  YFP fluorescence quenching using CNL001: 79.567%
100 nM CNL001, second column
  YFP fluorescence quenching using CNL001: 79.273%
100 nM CNL002
  YFP fluorescence quenching using CNL002: 12.83%
100 nM abt
  YFP fluorescence quenching using ABT-126: −12.3%
100 nM azd0328
  YFP fluorescence quenching using AZD-0328: 62.87%
100 nM brd
  YFP fluorescence quenching using TC-5619/Bradanicline: 81.41%
300 nM abt
  YFP fluorescence quenching using ABT-126: 18.5%
300 nM azd0328
  YFP fluorescence quenching using AZD-0328: 77.03%
300 nM brd
  YFP fluorescence quenching using TC-5619/Bradanicline: 75.79%
300 nM fac
  YFP fluorescence quenching using Facinicline: 80.4
300 nM var, first column
  YFP fluorescence quenching using Varenicline: 49.328
300 nM var, second column
  YFP fluorescence quenching using Varenicline: 47.685
500 nM var, first column
  YFP fluorescence quenching using Varenicline: 66.7
500 nM var, second column
  YFP fluorescence quenching using Varenicline: 64.798
1 uM CNL001, first column
  YFP fluorescence quenching using CNL001: 79.992%
1 uM CNL001, second column
  YFP fluorescence quenching using CNL001: 79.927%
1 uM CNL002
  YFP fluorescence quenching using CNL002: 77.73%
1 uM abt
  YFP fluorescence quenching using ABT-126: 59.09%
1 uM brd
  YFP fluorescence quenching using TC-5619/Bradanicline: 82.26%
1 uM tc6987
  YFP fluorescence quenching using TC-6987: 50
1 uM var, first column
  YFP fluorescence quenching using Varenicline: 70.85
1 uM var, second column
  YFP fluorescence quenching using Varenicline: 69.038
3 uM tc6987
  YFP fluorescence quenching using TC-6987: 80.39
5 uM tc6987
  YFP fluorescence quenching using TC-6987: 79.93
10 uM fac
  YFP fluorescence quenching using Facinicline: 82.18
10 uM tc6987
  YFP fluorescence quenching using TC-6987: 80.99
30 uM CNL002
  YFP fluorescence quenching using CNL002: 80.58%
30 uM azd0328
  YFP fluorescence quenching using AZD-0328: 78.63%
30 uM fac
  YFP fluorescence quenching using Facinicline: 82.14
30 uM tc6987
  YFP fluorescence quenching using TC-6987: 83.11
50 uM tc6987
  YFP fluorescence quenching using TC-6987: 83.18
100 uM tc6987
  YFP fluorescence quenching using TC-6987: 82.16
300 uM tc6987
  YFP fluorescence quenching using TC-6987: 64.58
500 uM tc6987
  YFP fluorescence quenching using TC-6987: 76.77
  percent quench of YFP fluorescence, 30 nM TC-6683: −18.32%
  percent quench of YFP fluorescence, 300 nM TC-6683: −17.25%
  percent quench of YFP fluorescence, 3 uM TC-6683: −10%
  percent quench of YFP fluorescence, 30 uM TC-6683: −8.51%
  percent quench of YFP fluorescence, 100 uM TC-6683: −9.77%
  percent quench of YFP fluorescence, 10 uM ach: 4.56%
  percent quench of YFP fluorescence, 100 uM ach: 10.19%
  percent quench of YFP fluorescence, 1 mM ach: 77.34%
  percent quench of YFP fluorescence, 3 mM ach: 77.79%

— patent US20240317834A1, “COMPOSITIONS AND METHODS FOR NEUROLOGICAL DISEASES” (CODA BIOTHERAPEUTICS, INC., priority 2020, published 2024)
